Biological target: SUDV VP35:[change] peptide (residues 1 to 34) (Sudan virus (SUDV), strain Gulu, UniProt Q5XX07 1-34)
Assay: BLI
Conditions: both partners purified

B1: His-SUDV-NP(34-367) (domain or fragment)
chain: GIVRQRVIPVYVVNDLEGICQHIIQAFEAGVDFQDNADSFLLLLCLHHAYQGDHRLFLKSDAVQYLEGHGFRFEVREKENVHRLDELLPNVTGGKNLRRTLAAMPEEETTEANAGQFLSFASLFLPKLVVGEKACLEKVQRQIQVHAEQGLIQYPTSWQSVGHMMVIFRLMRTNFLIKFLLIHQGMHMVAGHDANDTVISNSVAQARFSGLLIVKTVLDHILQKTDLGVRLHPLARTAKVKNEVSSFKAALGSLAKHGEYAPFARLLNLSGVNNLEHGLYPQLSAIALGVATAHGSTLAGVNVGEQYQQLREAATEAEKQLQQYAETRELDNLG
B1 was tested, and the Kd was about 266 nM.
